{"source": "paper PMC10866649", "key": {"[1]": {"target": "Human IgG1 Fc bearing the F241A mutation, produced in CHO-K1 cells coexpressing hST6GAL1 and hB4GALT1 (human)", "test": "SPR + BLI; Fcs immobilised on chips or captured on biosensors; human or mouse FcRn at 1,600 nM to 50 nM in 2-fold dilutions, pH 6.0; Biacore 3000 and Octet K2 both named"}, "[2]": {"target": "Wild-type human IgG1 Fc (human)", "test": "SPR + BLI; Fcs immobilised on chips or captured on biosensors; human or mouse FcRn at 1,600 nM to 50 nM in 2-fold dilutions, pH 6.0; Biacore 3000 and Octet K2 both named"}, "[3]": {"target": "Human IgG1 Fc bearing the Abdeg mutations (efgartigimod) (human)", "test": "SPR + BLI; Fcs immobilised on chips or captured on biosensors; human or mouse FcRn at 1,600 nM to 50 nM in 2-fold dilutions, pH 6.0; Biacore 3000 and Octet K2 both named"}, "[4]": {"target": "Human IgG1 Fc bearing the Abdeg mutations (Fc^Abdeg, efgartigimod) (human)", "test": "SPR + BLI; Fc immobilised on chips / captured on biosensors; human or mouse FcRn at 1,600 nM to 50 nM in 2-fold dilutions, pH 6.0; Biacore 3000 and Octet K2 are both named"}, "[5]": {"target": "Specific ICAM-3–grabbing non-integrin-related-1 (SIGN-R1; CD209b) (UniProt Q8CJ91)", "sequence (Q8CJ91 whole entry)": "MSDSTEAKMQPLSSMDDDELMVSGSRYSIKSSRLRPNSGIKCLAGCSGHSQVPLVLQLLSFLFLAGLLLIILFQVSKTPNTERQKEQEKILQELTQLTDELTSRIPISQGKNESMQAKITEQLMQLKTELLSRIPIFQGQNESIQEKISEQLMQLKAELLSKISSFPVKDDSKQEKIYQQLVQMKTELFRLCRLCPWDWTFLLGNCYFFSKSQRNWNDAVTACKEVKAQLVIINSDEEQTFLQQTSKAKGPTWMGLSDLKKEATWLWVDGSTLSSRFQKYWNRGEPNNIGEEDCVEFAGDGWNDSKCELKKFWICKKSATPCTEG", "test": "flow cytometry on cells (SIGN-R1+/+ murine BMDMs)", "settings": "type I FcγRs blocked; PBS control = 1; read off a plot"}}, "note": "Several values for one entry are separate records, joined by “and”; a condition that tells them apart may be missing. Equal entries are not always repeated.", "data": [{"substance": "Mouse neonatal Fc receptor (FcRn) (from UniProt Q61559 22-297; P01887 21-119)", "values": [{"measurement": "Kd", "setting": "[1]", "result": "50.8 nM and 77.5 nM and 86.7 nM"}, {"measurement": "Kd", "setting": "[2]", "result": "51.6 nM and 73.2 nM and 85.8 nM"}, {"measurement": "Kd", "setting": "[3]", "result": "0.27 nM and 0.28 nM and 0.26 nM"}]}, {"substance": "Human neonatal Fc receptor (hFcRn) (from UniProt P55899 24-297)", "values": [{"measurement": "fold enhanced affinity compared with Fc^F241A and Fc^WT", "setting": "[4]", "result": 96, "unit": "fold"}, {"measurement": "fold lower KD than that of Fc^F241A/B4ST6", "setting": "[4]", "result": 39, "unit": "fold"}]}, {"substance": "Mouse neonatal Fc receptor (mFcRn) (from UniProt Q61559 22-297)", "values": [{"measurement": "fold enhanced affinity compared with human FcRn", "setting": "[4]", "result": "> 10", "unit": "fold"}, {"measurement": "fold lower KD than that of Fc^F241A/B4ST6", "setting": "[4]", "result": 267, "unit": "fold"}]}, {"substance": "Wild-type human IgG1 Fc (Fc^WT) F241A", "values": [{"measurement": "response (fold change in MFI (normalized to PBS))", "setting": "[5]", "result": 1.6}]}, {"substance": "Human neonatal Fc receptor (FcRn) (from UniProt P55899 24-297; P61769 21-119)", "values": [{"measurement": "Kd", "setting": "[1]", "result": "131 nM and 260 nM and 208 nM"}, {"measurement": "Kd", "setting": "[3]", "result": 6, "unit": "nM"}]}]}
